Assay: label from the status in PepcDB records

Sequence | protein production
MMALTMDFSTQLLEHQVTAILLLDDQRQIHYANPAAEQLFSQSAQRMAQHAFDDLFHSPQFDLSTLMLPLNTGQSVTDSDVRIMIDEQPLYIELTSSPVAINKSLYLLVEIRQIE | failed
MMCRSITLFLFALISIVVGKQLSAQSISELRLLIDSGRYDRALPIAQQLVAKNPKHADNNYMLGLLLYKAERYEEAIAPLRVAVSRRSDAYEMLADAYAKEYFFSEALAALEKQKVTLVKKKQETVSIDAGIDRMRRAVRLLDRAEWVEVIDSVRTNKADLLSAYNLIADNGRLEWVKGNQGEATSFVNGRGDHAIMTEKGEDGVYSLHEAHRIGGKWGNAIPLEKLNSRFNENYPSLRADGFTLLFASDRPDGIGGYDLYMTRRDLEDGIFLEPTLLGMPFNSPYNDYLLVYDELRGIGFFASDRFCPADVVTVYTFVINEEGRPVATDDMALKRAYASLKSIRATQDPERDYSRLIASARDNRTDAEKKASERQIYFPMQGMRIYTRWSDFQSSEAKSLYQDVMARKRKLEQAATRLEELRLLYGRASALERSGMKQEILRLENAIPPLEEEVGRMEKEVRNMELQAVQGF | failed
MMDNDNSLNKRPTFKRALRNISMTSIFITMMLIWLLLSVTSVLTLKQYAQKNLALTAATMTYSLEAAVVFADGPAATETLAALGQQGQFSTAEVRDKQQNILASWHYTRKDPGDTFSNFISHWLFPAPIIQPIRHNGETIGEVRLTARDSSISHFIWFSLAVLTGCILLASGIAITLTRHLHNGLVEALKNITDVVHDVRSNRNFSRRVSEERIAEFHRFALDFNSLLDEMEEWQLRLQAKNAQLLRTALHDPLTGLANRAAFRSGINTLMNNSDARKTSALLFLDGDNFKYINDTWGHATGDRVLIEIAKRLAEFGGLRHKAYRLGGDEFAMVLYDVQSESEVQQICSALTQIFNLPFDLHNGHQTTMTLSIGYAMTIEHASAEKLQELADHNMYQAKHQRAEKLVR | failed
MMEMITIKPGKITVQANPNMPKEVAELFRKQHYEIVGRHSGVKLCHWLKKSLTEGRFCYKQKFYGIHSHRCLQMTPVLAWCTHNCIFCWRPMENFLGTELPQPWDDPAFIVEESIKAQRKLLIGYKGNPKVDKKKFEEAWNPTHAAISLSGEPMLYPYMGDLVEEFHKRGFTTFIVTNGTIPERLEEMIKEDKLPTQLYVSITAPDIETYNSVNIPMIPDGWERILRFLELMRDLPTRTVVRLTLVKGENMHSPEKYAKLILKARPMFVEAKAYMFVGYSRNRLTINNMPSHQDIREFAEALVKHLPGYHIEDEYEPSRVVLIMRDDVDPQGTGVEGRFIKH | not failed
MMENQVNEQTVTSPENGSSATGYNSGIWDGLSVVALIGGAIASVVLPANPAAGVIPVAAGVGLHLFNRKQLEEHLLANQRATAAQIVQLVNQNQAHLQEYLQKFQGDIQTSLGQQQQAIAANQENLTKALAEKSLALQGKLEAFQAAAAQTHAGLDIKHQDLLAVVTELRTMEGCTQSLAAYPHAEAYYQRGLSHYRLEDWAEAVRDCTEAIRLRGDLAGAFHHRGMAYARLDNRKQATDDLRQAYKLYFDQGDLDSYEVARALHKQYYEGPVEDLELEPTPVMPPAEGVGHEAYIADPDREIKPLLAEESDTTAANLFG | failed
MMEQKIMEVLRRMQAILDEACLRDLKTVLQVVFEGCEISQEKRELRVPDRSWAIDLEEYLMSKALEGKSPGTVDRYRYELQRLLSYVNKAVRDITEGDISGYMRAYKAIRQVSNQTLKNVRAVYSSFFAWLRDRDRIRRNPMALVEAIKVEQKIRKPYTDEEREMLLRNCSTLRDKAMMEFFYSTAVRVSELVTLNRDDIRFTSKDLIVFGKGSKERRVYLNDRTNLYMKEYLDSRTDGSPALIVSIRRPHSRLSKTGIEDIIRRTGQRAGVEKAHPHRFRRTSLTNALNRGMPLQEAMVMAGHAKPETTMGYCTVDQEGVKYHHQKYLSA | failed
MMESGAGFVAMEERISPGSFFQYPLSGFRASPNRSPCPPSDRERYLTELLQERQKLGPFLQVMPNCCRLLNHEIRRVSSFPDLDRYEHGSPFRSLGQPTNGKLDLEGWSMMQAEVSHC | failed
MMFDEFKRTILREDIKYEIFRKFFHIFSLIVLVFYRINFWIGLFSNILFMILYLSSEIFRITEKKILFFKNISNIILKSRKILPNRVSFSPVFLFLGILISYCLSMHPFNYIGIFSVCLGDGFASLIGKLIPSFKLVNGKTISGSLVVFCVTFFSYYYFFPYLTVALILGILAVLVELFDAANYDNLFLPLVVSASSYFLTSFFYSQ | failed
MMFLSKTLTSLGQWPHSLPRISLMDRYVARQLIPPFLFSVGVVASLGLAIGNLSDLGNKIVEKNLPVAKAAEVLLLKVPEFLAYSLPVAVMLATMMTFGRLSGDCEIIAIRSCGVSLYRLILPAVVLSLLVTGWAFVLTEWVVPVANYRATSILIESIDEEHPFWQNRDVFYPEFEEIKLDNGQTARRLKSLVYAEKFDGKEMQNLTVLQWTENHLKHIVLSDNATWNNDNKRWDFFHGTVYRLTETEDYQEAVPFTNKQIALPQSAFDFARQGRDPYEMTIAEAQDYIKILKLIGDEKKTQFFQVRTEQKLAFPFVCIVFAVVGSAIGARPQRISRATGFGLTIVIIFAYYILGFFSGSLGIVGLISPTLAAWLPNFVGLGVGIWLLYEFNQG | failed
MMGLKAHAMVLEKFNQPLVYKEFEISDIPRGSILVEILSAGVCGSDVHMFRGEDPRVPLPIILGHEGAGRVVEVNGEKRDLNGELLKPGDLIVWNRGITCGECYWCKVSKEPYLCPNRKVYGINRGCSEYPHLRGCYSSHIVLDPETDVLKVSEKDDLDVLAMAMCSGATAYHAFDEYPESFAGKTVVIQGAGPLGLFGVVIARSLGAENVIVIAGSPNRLKLAEEIGADLTLNRRETSVEERRKAIMDITHGRGADFILEATGDSRALLEGSELLRRGGFYSVAGVAVPQDPVPFKVYEWLVLKNATFKGIWVSDTSHFVKTVSITSRNYQLLSKLITHRLPLKEANKALELMESREALKVILYPEG | not failed
MMHPVASSNPAFCGPGKPSCLNEDAMRAADQFDIYSSQQSKYSHTVNHKPMVCQRQDPLNETHLQTTSGRSIEIKDELKKKKNLNRSGKRGRPSGTTKSAGYRTSTGRPLGTTKAAGFKTSPGRPLGTTKAAGYKVSPGRPPGSIKALSRLADLGYGCGTAAFPYPMMHGRAVHGVEETSSEVKPPNE | failed
MMIDPELRPAFLPAGKLRAAINLGNPILAGTDAAGQAVGVSVDLAREFARRLNAGIELRVFDTAGQSVDAVTREEADIGFFAIDPARGAGIAFTGPYVLIEGAYLVRDDSPLQANEDVDRAGKRVTVGKGSAYDLHLTRALQHLEHHHHHH | not failed
MMIIIRVAIMISVVFYLYFIINLLLINHYREPIQSYEKGPTPYELFLVIPVLNEEHVISRTITQLTESLEQLPPTVHAQIIAVDDDSTDHSLLLLTQSSSRFLQILHRTGNQRAGKGAVLNTAVQYIHKTLALKSDPQRTIVGVLDADAFMNTADLTRVLAHFEQEPQLAMIQTSVNIYNQPNWLTKMQNFEFMGVNNATQQLRNRLGQGIASGNGQFVRLDLALQNPWGNSLLEDLEFTLRTWLLGGTRTAFDHTLVVQQEAVEQLRPFFRQRVRWCQGAVQCMRYLPALWRSGRLNHFQKLDTTFWILMPISGCIVPLTSLITLVVLVSRSLQHWQVGWHHLAIGTLLVIAFSACLVLAALYQRNCAVVKQPVGFLDALKQSLTFQAFLLIISLTPYVAIYRQLRGQTGWAKTHHGVTTRVAKYPDTGLKRSY | failed
MMIMLSKRPVAMRIALRPLALAASLILSTPFALNATTFGTDLLEGQVLDGIGTGAGNLGTVADIQNTLSNMLRDEAAIGTLASVLPQALQRLPDDRQLRLLQAVVWAATRRDDDARAQMAQIGQEPPNVWRHVAEGLIARNAGDLARAAASLDEARALDPDNAYVHNTAGSIAFAAGDLEAAQEHFAQAVKSAPGWPRLLRQPCRHDDRTRQSARGPDHSGRKPPSPSRLLRHPPDGGRGASVARAVGCCRSRAAHLP | failed
MMITRGGAKAAKSLLVAAGPRLFSTVRTVSSHEALSASHILKPGVTSAWIWTRAPTIGGMRFASTITLGEKTPMKEEDANQKKTENESTGGDAAGGNNKGDKGIASYWGVEPNKITKEDGSEWKWNCFRPWETYKADITIDLKKHHVPTTFLDRIAYWTVKSLRWPTDLFFQRRYGCRAMMLETVAAVPGMVGGMLLHCKSLRRFEQSGGWIKALLEEAENERMHLMTFMEVAKPKWYERALVITVQGVFFNAYFLGYLISPKFAHRMVGYLEEEAIHSYTEFLKELDKGNIENVPAPAIAIDYWRLPADATLRDVVMVVRADEAHHRDVNHFASDIHYQGRELKEAPAPIGYH | failed

Source: a protein production outcome set (Wang et al. 2014)
